Test results published in publication PMC7232412.

How the values were obtained:
[1] = molecular target: HIV-1 Gag p6 (pGBT p6) (UniProt P04591); test: yeast 2-hybrid assay; conditions: parent: est. 1.0; read off a plot
[2] = molecular target: HIV-1 Gag p6 with ubiquitin fused to its C-terminus (pGBT p6-Ub), P04591;P0CG48; test: yeast 2-hybrid assay; conditions: parent: est. 1.0; read off a plot

Substance: human Tsg101 wild-type (pGAD-hTsg101) (from UniProt Q99816) Y43A
- ratio to parent [1]: 1.4
- ratio to parent [2]: 1.5
